This note sets out measurements from PMC10256812.

The chains are these.
B1: HA-tagged SREBF1 (wild type), expressed in C4-2B cells [not stated] / KAT2A/GCN5, endogenous [human (endogenous in C4-2B, LAPC4)] (parent)
chain 1: MDEPPFSEAALEQALGEPCDLDAALLTDIEDMLQLINNQDSDFPGLFDPPYAGSGAGGTDPASPDTSSPGSLSPPPATLSSSLEAFLSGPQAAPSPLSPPQPAPTPLKMYPSMPAFSPGPGIKEESVPLSILQTPTPQPLPGALLPQSFPAPAPPQFSSTPVLGYPSPPGGFSTGSPPGNTQQPLPGLPLASPPGVPPVSLHTQVQSVVPQQLLTVTAAPTAAPVTTTVTSQIQQVPVLLQPHFIKADSLLLTAMKTDGATVKAAGLSPLVSGTTVQTGPLPTLVSGGTILATVPLVVDAEKLPINRLAAGSKAPASAQSRGEKRTAHNAIEKRYRSSINDKIIELKDLVVGTEAKLNKSAVLRKAIDYIRFLQHSNQKLKQENLSLRTAVHKSKSLKDLVSACGSGGNTDVLMEGVKTEVEDTLTPPPSDAGSPFQSSPLSLGSRGSGSGGSGSDSEPDSPVFEDSKAKPEQRPSLHSRGMLDRSRLALCTLVFLCLSCNPLASLLGARGLPSPSDTTSVYHSPGRNVLGTESRDGPGWAQWLLPPVVWLLNGLLVLVSLVLLFVYGEPVTRPHSGPAVYFWRHRKQADLDLARGDFAQAAQQLWLALRALGRPLPTSHLDLACSLLWNLIRHLLQRLWVGRWLAGRAGGLQQDCALRVDASASARDAALVYHKLHQLHTMGKHTGGHLTATNLALSALNLAECAGDAVSVATLAEIYVAAALRVKTSLPRALHFLTRFFLSSARQACLAQSGSVPPAMQWLCHPVGHRFFVDGDWSVLSTPWESLYSLAGNPVDPLAQVTQLFREHLLERALNCVTQPNPSPGSADGDKEFSDALGYLQLLNSCSDAAGAPAYSFSISSSMATTTGVDPVAKWWASLTAVVIHWLRRDEEAAERLCPLVEHLPRVLQESERPLPRAALHSFKAARALLGCAKAESGPASLTICEKASGYLQDSLATTPASSSIDKAVQLFLCDLLLVVRTSLWRQQQPPAPAPAAQGTSSRPQASALELRGFQRDLSSLRRLAQSFRPAMRRVFLHEATARLMAGASPTRTHQLLDRSLRRRAGPGGKGGAVAELEPRPTRREHAEALLLASCYLPPGFLSAPGQRVGMLAEAARTLEKLGDRRLLHDCQQMLMRLGGGTTVTSS
chain 2: MAEPSQAPTPAPAAQPRPLQSPAPAPTPTPAPSPASAPIPTPTPAPAPAPAAAPAGSTGTGGPGVGSGGAGSGGDPARPGLSQQQRASQRKAQVRGLPRAKKLEKLGVFSACKANETCKCNGWKNPKPPTAPRMDLQQPAANLSELCRSCEHPLADHVSHLENVSEDEINRLLGMVVDVENLFMSVHKEEDTDTKQVYFYLFKLLRKCILQMTRPVVEGSLGSPPFEKPNIEQGVLNFVQYKFSHLAPRERQTMFELSKMFLLCLNYWKLETPAQFRQRSQAEDVATYKVNYTRWLCYCHVPQSCDSLPRYETTHVFGRSLLRSIFTVTRRQLLEKFRVEKDKLVPEKRTLILTHFPKFLSMLEEEIYGANSPIWESGFTMPPSEGTQLVPRPASVSAAVVPSTPIFSPSMGGGSNSSLSLDSAGAEPMPGEKRTLPENLTLEDAKRLRVMGDIPMELVNEVMLTITDPAAMLGPETSLLSANAARDETARLEERRGIIEFHVIGNSLTPKANRRVLLWLVGLQNVFSHQLPRMPKEYIARLVFDPKHKTLALIKDGRVIGGICFRMFPTQGFTEIVFCAVTSNEQVKGYGTHLMNHLKEYHIKHNILYFLTYADEYAIGYFKKQGFSKDIKVPKSRYLGYIKDYEGATLMECELNPRIPYTELSHIIKKQKEIIKKLIERKQAQIRKVYPGLSCFKEGVRQIPVESVPGIRETGWKPLGKEKGKELKDPDQLYTTLKNLLAQIKSHPSAWPFMEPVKKSEAPDYYEVIRFPIDLKTMTERLRSRYYVTRKLFVADLQRVIANCREYNPPDSEYCRCASALEKFFYFKLKEGGLIDK

In the experiment the parent is B1. Put plainly: co-immunoprecipitation (anti-HA affinity gel, immunoblot with KAT2A antibody), band quantification. The following applies: with KAT2A/GCN5, endogenous [human (endogenous in C4-2B, LAPC4)]; C4-2B cells; + Abi; parent: 1. Background: In western blotting, separated proteins are transferred to a membrane and probed.
Turning to chain 1 Y673A Y951A, the response worked out at 0.01.
